Where a chain is given by its changes, count along the chain named.
Key:
Experiment in all cases: cAMP activity assay (pCRE β-galactosidase reporter), transfected HEK293T cells
Type in all cases: cell-based
RXFP1 D51A = molecular target: T1, RXFP1 D51A (Homo sapiens, UniProt Q9HBX9, D51A/D73A); conditions: construct D51A, ±s.e.m.
T1 construct: cells expressing full-length RXFP1 and mutants; expressed in transfected cells; host or cells: HEK293T
T1 sequence (Q9HBX9 23-757 D51A/D73A limits assumed): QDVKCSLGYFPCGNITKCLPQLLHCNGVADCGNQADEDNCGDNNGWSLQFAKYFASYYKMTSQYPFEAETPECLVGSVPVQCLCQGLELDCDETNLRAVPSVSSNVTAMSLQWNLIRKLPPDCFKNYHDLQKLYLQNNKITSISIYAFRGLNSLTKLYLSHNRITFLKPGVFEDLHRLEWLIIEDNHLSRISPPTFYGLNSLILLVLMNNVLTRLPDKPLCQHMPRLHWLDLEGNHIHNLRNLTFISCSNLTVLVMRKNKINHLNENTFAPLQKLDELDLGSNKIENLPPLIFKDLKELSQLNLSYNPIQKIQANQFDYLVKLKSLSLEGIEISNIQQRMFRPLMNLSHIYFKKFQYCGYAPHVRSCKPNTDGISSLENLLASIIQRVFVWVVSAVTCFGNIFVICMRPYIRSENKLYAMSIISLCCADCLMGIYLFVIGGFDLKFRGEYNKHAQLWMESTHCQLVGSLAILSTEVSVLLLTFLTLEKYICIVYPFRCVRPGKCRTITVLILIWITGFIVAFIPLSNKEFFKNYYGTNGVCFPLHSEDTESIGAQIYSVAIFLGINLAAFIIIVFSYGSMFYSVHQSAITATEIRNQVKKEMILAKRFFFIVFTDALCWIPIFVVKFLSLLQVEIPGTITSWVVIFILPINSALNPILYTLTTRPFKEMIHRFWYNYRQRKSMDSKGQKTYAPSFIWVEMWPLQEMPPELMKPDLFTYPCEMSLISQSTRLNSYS
Description: (§1) Media was aspirated and plates stored frozen at −80 °C overnight. […] H2 relaxin dilutions were prepared in minimal media containing 1% DMSO. Positive and negative control stimulations were achieved by incubation with 5 μM Forskolin and minimal media/1% DMSO, respectively. Plates were developed by 10 min of incubation in 25 μl of lysis buffer 1 (100 mM Na2HPO4, pH 8.0, 0.2 mM MgSO4 0.01 mM MnCl2); a further 10 min of incubation in 100 μl of buffer 2 (100 mM Na2HPO4, pH 8.0, 2 mM MgSO4, 0.1 mM MnCl2, 0.5% Triton X-100, 40 mM β-mercaptoethanol); then to each well 25 μl of the β-galactosidase substrate, chlorophenol red-β-D-galactopyranoside (Roche) was added. All incubation steps were conducted with orbital shaking. Color-change was monitored and readings were taken on a Benchmark Plus Microplate Reader (Bio-Rad) at 570 nm. A minimum of three separate experiments were performed, each of them in triplicate, and data were pooled and presented as percentages of the maximum response induced by 5 μM Forskolin±s.e.m.

RXFP1 D42A = molecular target: T2, RXFP1 D42A (Homo sapiens, UniProt Q9HBX9, D64A); conditions: construct D42A
T2 construct: transiently transfected human embryonic kidney (HEK) 293T cells expressing full-length RXFP1 and mutants; expressed in transfected cells; host or cells: HEK293T
T2 sequence (Q9HBX9 23-757 D64A limits assumed): T1 sequence (Q9HBX9 23-757 D51A/D73A limits assumed) with A29D, D42A, A51D
Description: as §1

RXFP1 S47L48-AA = molecular target: T3, RXFP1 S47L48-AA (Homo sapiens, UniProt Q9HBX9, L70A/S69A); conditions: construct S47L48-AA, ±s.e.m.
T3 construct: expressed in transfected cells; host or cells: HEK293T
T3 sequence (Q9HBX9 23-757 S69A/L70A limits assumed): T1 sequence (Q9HBX9 23-757 D51A/D73A limits assumed) with A29D, S47A, L48A, A51D
Description: as §1

[1] = percentage of maximum response to 5 μM Forskolin

How did the “H2 relaxin pEC50” value (RXFP1 D51A; cAMP reporter) turn out when “H2 relaxin: two-chain 6-kDa peptide hormone structurally related to insulin; recombinant human gene-2 H2 relaxin provided by Corthera” was run?
The value was 11.01±0.56 (3).

And the “H2 relaxin Emax” value (RXFP1 D51A; [1])?
Its value is 96.5±4.0 (3) %.

What about the “H2 relaxin pEC50” value (RXFP1 D42A) of the same substance?
The value was <6 (4).

And the “H2 relaxin pEC50” value (RXFP1 S47L48-AA; cAMP reporter)?
The value was 11.07±0.17 (3).

What about the “H2 relaxin Emax” value (RXFP1 S47L48-AA; [1]) of the same substance?
The value was 120.9±10.9 (3) %.

Source: publication PMC4837482, “The complex binding mode of the peptide hormone H2 relaxin to its receptor RXFP1” (Nature Communications, 2016)
